Measured values: patent US20220119522A1 (DENALI THERAPEUTICS, published 2022)
No end group written: not given here.

Experiments:
[1] = biological target: T1, human TREM2 on the cell surface (human, UniProt Q9NZC2 19-230); assay: cell-based or functional assay
T1 sequence: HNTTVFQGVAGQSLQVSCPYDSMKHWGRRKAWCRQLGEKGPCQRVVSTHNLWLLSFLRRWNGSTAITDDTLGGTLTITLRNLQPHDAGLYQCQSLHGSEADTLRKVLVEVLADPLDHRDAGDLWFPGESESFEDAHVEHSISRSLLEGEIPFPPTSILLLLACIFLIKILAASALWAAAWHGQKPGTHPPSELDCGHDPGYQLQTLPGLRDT

[2] = biological target: T1, human TREM2 on the cell surface; assay: cell binding, human macrophages, dose titration
[3] = biological target: T2, human TREM2 full length stalk region peptide (aa 129-172) (human, biotinylated (site not stated)); assay: fluorescence polarization assay with TREM2 stalk peptide and ADAM17
T2 construct: also called Human TREM2 peptide (aa 129-172); full-length TREM2 stalk peptide
T2 peptide: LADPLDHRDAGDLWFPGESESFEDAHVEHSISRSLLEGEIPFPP
Experimental: The ability of anti-TREM2 antibodies to inhibit TREM2 stalk peptide cleavage by ADAM17 was also analyzed using a fluorescence polarization assay. TREM2 stalk peptides were first prepared in assay buffer (25 mM Tris pH 7.5, 2.5 μM ZnCl₂, 0.005% Brij-35) with streptavidin. Anti-TREM2 antibodies were then pre-incubated with TREM2 stalk peptides for 30 minutes at room temperature. After the pre-incubation period, ADAM17 (R&D systems, Catalog No. 930-ADB) was added and incubated with the peptides for 20 hours at 37° C. The following day, samples were further diluted in assay buffer and transferred to a black opaque 384-well plate. Fluorescence polarization was subsequently measured on Perkin Elmer EnVision plate reader. The fluorescence polarization of TREM2 stalk peptides pre-incubated with anti-TREM2 antibody was compared to fluorescence polarization of full-length TREM2 stalk peptide and enzyme control (full-length TREM2 stalk peptide with ADAM17).

[4] = biological target: T2, human TREM2 full length stalk region …; assay: ELISA on biotinylated peptide captured by streptavidin; A450 normalised to isotype control
Outline: (§1)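 Sandwich ELISA: biotinylated TREM2 stalk peptides captured on streptavidin-coated plates, antibodies added for 1 h in 1% BSA/PBS, binding detected with anti-human kappa-HRP and TMB at A450. Values expressed as fold over isotype-control background.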

[5] = biological target: T3, human TREM2 truncated stalk peptide (aa 149-163) (human, also: biotinylated (site not given here)); assay: as above
T3 construct: also called Human TREM2 peptide (aa 149-163); truncated stalk peptide containing the ADAM10/17 cleavage site
T3 peptide: SFEDAHVEHSISRSL
Outline: as §1

[6] = biological target: T4, mouse TREM2 full length stalk region peptide (aa 131-169) (mouse, UniProt Q99NH8 131-169, biotinylated (site not stated)); assay: as above
T4 peptide (looked up): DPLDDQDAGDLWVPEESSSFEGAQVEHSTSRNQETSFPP
Outline: as §1

[7] = biological target: T5, His-tagged human TREM2 ECD (human, UniProt Q9NZC2 19-172); assay: SPR (Biacore), antibody captured via anti-human Fab, recombinant TREM2 ECD injected, 1:1 fit
T5 construct: Biacore and HDX say only recombinant human TREM2 (ECD); also called recombinant human TREM2; hTREM2
T5 sequence: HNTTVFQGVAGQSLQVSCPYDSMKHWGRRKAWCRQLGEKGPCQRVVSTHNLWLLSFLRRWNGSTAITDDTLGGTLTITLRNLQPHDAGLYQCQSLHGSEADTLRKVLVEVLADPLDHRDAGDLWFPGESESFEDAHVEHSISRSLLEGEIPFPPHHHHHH
Outline: (§2)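 Antibodies captured on a CM5 chip via anti-human Fab, then 3-fold serial dilutions of recombinant human or cynomolgus TREM2 ECD injected at 30 μL/min in HBS-EP+. Association 300 s, dissociation 600+ s, blank-cell subtracted; kon and koff from simultaneous 1:1 Langmuir fit.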

[8] = biological target: T6, recombinant cynomolgus TREM2 ECD (cynomolgus); assay: as above
T6 construct: extracellular domain; also called cyno TREM2
Outline: as §2

[9] = biological target: T1, human TREM2 on the cell surface; assay: flow cytometry, dose-titrated binding to HEK293-H6 cells
[10] = biological target: T5, His-tagged human TREM2 ECD; assay: SPR (Biacore); Table 5 run, parent beside its humanized variants

Binder	NFAT EC50 (nM), plate coated mAb [1] [nM]	Survival EC50 (nM), plate coated mAb, human macrophages [1] [nM]	pSyk activation (human macrophages) EC50 (nM) [1] [nM]	EC50 [2] [nM]	binding result [3]	fold over background (A450) [4] [fold]	fold over background (A450) [5] [fold]	fold over background (A450) [6] [fold]	Kd [7] [nM]	Kd [8] [nM]	EC50 [9] [nM]	Kd [10] [nM]
CL0020107 (antibody, V domains shown, also called Clone CL0020107) VH: QVQLQQPGAELVKPGASVKMSCRASGYTFTNYWISWVKQRPGQGLEWIGDIYPHSTSTNYNERFRSKATLTVDKSSTTAYMQLSSLTSEDSAVYYCAREGFGISAWGQGTTLTVSS VL: QIVLTQSPAIMSASPGEKVTITCSATSSVSYMHWFQQKPGTSPKLWIYSTSNLASGVPARFSGSGSGTSHSLTISRMEAEDAATYYCQQRSSYPLTFGSGTKLELK	10.9	0.53	28.5	4.4	no binding	1.7	1.4	1.3	1.47	104	–	–
CL0020188 (antibody, V domains shown, also called Clone CL0020188) VH: EVKLLDSGGGLVQAGGSLRLSCAGSGFTFTDFYMSWIRQPPGKAPEWLGVIRNKANGYTAGYNPSVKGRFTISRDNTQNILYLQMNTLRAEDTAIYYCARLTYGFDYWGQGVMVTVSS VL: DIVMTQGALPNPVPSGESASITCQSSKSLLHSNGKTYLNWYLQRPGQSPQLLIYWMSTRASGVSDRFSGSGSGTDFTLKISSVEAEDVGVYYCQQFLEYPFTFGSGTKLEIK	91.2	2.4	7.7	0.5	–	51	–	33	5.2	2	0.44	9.5
